From article PMC11128199 (2024)

Target: S protein of WT SARS-CoV-2 (SARS-CoV-2, UniProt P0DTC2)
Assay: ELISA

B1: 55A8 neutralizing antibody (IgG) (antibody, V domains shown)
VH: QVQLVQSGAEVKKPGSSVKVSCKASGGTFSSYSFIWVRQAPGQGLEWMGRIIPILGIANYAQKFQGRVTITADKSTTTAYMELSSLRSEDTAVYYCARGTEYGDYDVSHDWGQGTLVTVSS
VL: not shown
With B1 the EC50 was 0.0439 µg/mL.
